Measured values: patent US20240082414A1, “HUMAN TUMOR NECROSIS FACTOR ALPHA ANTIBODY GLUCOCORTICOID CONJUGATES” (Eli Lilly and Company, priority 2022, published 2024)

Columns and labels:
[1] = target: human FcγRI (CD64) extracellular domain (human) (UniProt P12314); assay: SPR (Biacore), antibody captured on Protein A, FcγR ECD as analyte, 25° C.
[2] = target: human FcγRIIIA_158F (CD16a) extracellular domain (human) (UniProt P08637); assay: SPR (Biacore), antibody captured on Protein A, FcγR ECD as analyte, steady state, 25° C.
[3] = target: human FcγRIIA_131R (CD32a) extracellular domain (human) (UniProt P12318); assay: as above
[4] = target: human FcγRIIb (CD32b) extracellular domain (human) (UniProt P31994); assay: as above
[5] = target: human FcγRIIA_131H (CD32a) extracellular domain (human) (UniProt P12318); assay: as above
Chain of human FcγRIIA_131H (CD32a) extracellular domain (human) (P12318 34-217): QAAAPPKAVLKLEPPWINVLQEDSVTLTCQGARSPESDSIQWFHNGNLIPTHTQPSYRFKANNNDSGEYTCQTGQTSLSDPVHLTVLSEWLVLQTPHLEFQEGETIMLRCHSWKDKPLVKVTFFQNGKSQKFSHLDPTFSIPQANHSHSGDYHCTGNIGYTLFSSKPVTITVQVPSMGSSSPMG

Chain of human FcγRIIA_131R (CD32a) extracellular domain (human) (P12318 34-217 H167R limits assumed): as the sequence (P12318 34-217) above, with H134R counted along it
Chain of human FcγRIIIA_158F (CD16a) extracellular domain (human) (P08637 17-208): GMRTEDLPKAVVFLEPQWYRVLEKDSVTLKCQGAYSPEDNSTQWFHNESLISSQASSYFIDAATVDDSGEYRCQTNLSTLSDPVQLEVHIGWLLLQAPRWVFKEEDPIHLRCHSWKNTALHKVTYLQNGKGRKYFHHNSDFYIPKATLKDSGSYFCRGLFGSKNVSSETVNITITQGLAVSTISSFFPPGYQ
Chain of human FcγRIIb (CD32b) extracellular domain (human) (P31994 43-217): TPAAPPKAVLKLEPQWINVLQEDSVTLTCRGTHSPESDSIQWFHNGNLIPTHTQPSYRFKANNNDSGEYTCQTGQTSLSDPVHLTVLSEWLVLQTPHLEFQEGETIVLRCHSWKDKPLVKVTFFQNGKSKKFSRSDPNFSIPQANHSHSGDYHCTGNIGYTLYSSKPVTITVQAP
Chain of human FcγRI (CD64) extracellular domain (human) (P12314 16-292): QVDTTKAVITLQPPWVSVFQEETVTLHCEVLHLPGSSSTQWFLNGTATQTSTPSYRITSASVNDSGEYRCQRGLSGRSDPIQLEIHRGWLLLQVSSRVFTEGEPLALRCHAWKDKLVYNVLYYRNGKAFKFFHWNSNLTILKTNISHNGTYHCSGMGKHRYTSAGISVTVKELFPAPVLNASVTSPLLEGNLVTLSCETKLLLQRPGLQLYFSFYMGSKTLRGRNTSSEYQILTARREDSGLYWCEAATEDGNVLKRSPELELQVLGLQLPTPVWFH

With human IgG1 isotype control antibody the Kd [1] was 0.0479 nM, the Kd [2] was 820 nM and the Kd [3] was 570 nM. It also gave a Kd [4] of 2810 nM and a Kd [5] of 570 nM.
